In article PMC5729022:
Each block holds one substance with its values, some of them ahead of it.

What was measured:
[1] = target: network soluble collagen type IV from human placenta (human) (UniProt P02462)
[2] = target: insoluble microfibrillar collagen type I from bovine Achilles tendon, Col I(S) (bovine) (UniProt P02453)
[3] = target: insoluble microfibrillar collagen type I from bovine skin, Col I(D) (bovine) (UniProt P02453)
[4] = target: soluble fibrillar collagen type II from bovine tracheal cartilage (bovine) (UniProt P02459)
Chain of UniProt P02459 (P02459 182-1241): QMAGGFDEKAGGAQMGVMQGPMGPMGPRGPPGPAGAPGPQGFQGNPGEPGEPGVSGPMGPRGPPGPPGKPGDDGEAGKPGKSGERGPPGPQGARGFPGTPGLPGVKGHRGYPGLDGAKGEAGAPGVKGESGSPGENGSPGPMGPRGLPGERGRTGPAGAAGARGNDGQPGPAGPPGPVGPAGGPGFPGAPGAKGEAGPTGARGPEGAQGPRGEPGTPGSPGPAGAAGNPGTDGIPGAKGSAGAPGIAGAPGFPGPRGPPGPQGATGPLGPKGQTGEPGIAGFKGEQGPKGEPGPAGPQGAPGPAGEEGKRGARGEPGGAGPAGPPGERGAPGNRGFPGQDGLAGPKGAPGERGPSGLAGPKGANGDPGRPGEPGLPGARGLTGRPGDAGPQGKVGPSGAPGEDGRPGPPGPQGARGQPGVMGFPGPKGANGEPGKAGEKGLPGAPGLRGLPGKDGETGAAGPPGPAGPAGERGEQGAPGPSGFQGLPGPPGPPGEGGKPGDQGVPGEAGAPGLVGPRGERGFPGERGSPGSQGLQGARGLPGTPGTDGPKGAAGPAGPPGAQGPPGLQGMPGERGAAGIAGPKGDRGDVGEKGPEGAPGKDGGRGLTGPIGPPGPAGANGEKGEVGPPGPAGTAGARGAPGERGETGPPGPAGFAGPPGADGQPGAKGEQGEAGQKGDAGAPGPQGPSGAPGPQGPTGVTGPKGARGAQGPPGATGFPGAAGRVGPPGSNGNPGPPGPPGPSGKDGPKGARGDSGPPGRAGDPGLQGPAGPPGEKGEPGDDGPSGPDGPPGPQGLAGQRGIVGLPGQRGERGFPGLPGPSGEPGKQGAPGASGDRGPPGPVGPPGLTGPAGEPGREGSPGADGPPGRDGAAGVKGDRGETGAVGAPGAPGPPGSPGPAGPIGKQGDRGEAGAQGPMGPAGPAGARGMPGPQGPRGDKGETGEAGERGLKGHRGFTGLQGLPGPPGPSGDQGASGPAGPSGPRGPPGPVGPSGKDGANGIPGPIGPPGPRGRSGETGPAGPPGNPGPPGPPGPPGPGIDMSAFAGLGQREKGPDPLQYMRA

[5] = target: soluble fibrillar collagen type III from human placenta (human) (UniProt P02461)
Chain of UniProt P02461 (P02461 154-1221): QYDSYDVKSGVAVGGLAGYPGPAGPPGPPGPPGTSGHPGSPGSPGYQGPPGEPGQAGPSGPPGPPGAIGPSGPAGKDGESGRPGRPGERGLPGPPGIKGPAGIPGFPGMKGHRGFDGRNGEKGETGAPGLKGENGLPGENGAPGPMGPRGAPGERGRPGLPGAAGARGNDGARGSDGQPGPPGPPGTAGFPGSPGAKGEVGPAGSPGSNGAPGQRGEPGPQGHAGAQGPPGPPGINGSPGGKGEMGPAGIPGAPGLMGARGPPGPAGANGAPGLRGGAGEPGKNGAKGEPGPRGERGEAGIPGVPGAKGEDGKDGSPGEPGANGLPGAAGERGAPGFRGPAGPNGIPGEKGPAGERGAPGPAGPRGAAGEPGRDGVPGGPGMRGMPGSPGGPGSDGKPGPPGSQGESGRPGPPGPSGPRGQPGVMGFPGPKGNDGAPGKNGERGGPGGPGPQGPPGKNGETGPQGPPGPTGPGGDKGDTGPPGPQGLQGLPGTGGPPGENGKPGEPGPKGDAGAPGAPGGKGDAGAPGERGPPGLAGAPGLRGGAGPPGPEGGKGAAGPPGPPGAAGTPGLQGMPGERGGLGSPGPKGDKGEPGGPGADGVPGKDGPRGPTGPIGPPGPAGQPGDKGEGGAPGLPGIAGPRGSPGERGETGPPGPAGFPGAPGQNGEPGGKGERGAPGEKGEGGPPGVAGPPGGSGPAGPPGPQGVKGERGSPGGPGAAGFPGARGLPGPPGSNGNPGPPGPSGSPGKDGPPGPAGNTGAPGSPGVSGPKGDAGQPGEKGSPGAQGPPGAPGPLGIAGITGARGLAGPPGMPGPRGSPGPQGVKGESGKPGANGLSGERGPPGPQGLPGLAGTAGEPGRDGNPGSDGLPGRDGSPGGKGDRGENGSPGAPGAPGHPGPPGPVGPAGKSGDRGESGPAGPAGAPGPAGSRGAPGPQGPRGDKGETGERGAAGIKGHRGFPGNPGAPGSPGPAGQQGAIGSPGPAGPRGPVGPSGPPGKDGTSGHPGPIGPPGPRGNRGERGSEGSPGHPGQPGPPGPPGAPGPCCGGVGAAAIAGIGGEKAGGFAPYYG

percent of C2C12 cells transfected with human integrin α1 adhering to the collagen coating, 5 mM Mg2+, LDH assay, 1 × 10^5 cells/ml [1]: 51.9%
Substance: recombinant human integrin α1 I domain (GST fusion) (from UniProt P56199 169-363) (domain or fragment)

percent of C2C12 cells transfected with human integrin α2 adhering to the collagen coating, 5 mM Mg2+, LDH assay, 1 × 10^5 cells/ml [2]: 44.2% | percent of HT1080 cells (endogenous human α2β1) adhering to the collagen coating, 5 mM Mg2+, LDH assay, 1 × 10^5 cells/ml [2]: 45.6% | percent of C2C12 cells transfected with human integrin α2 adhering to the collagen coating, 5 mM Mg2+, LDH assay, 1 × 10^5 cells/ml [3]: 36.5% | percent of HT1080 cells (endogenous human α2β1) adhering to the collagen coating, 5 mM Mg2+, LDH assay, 1 × 10^5 cells/ml [3]: 43.6% | percent of C2C12 cells transfected with human integrin α2 adhering to the collagen coating, 5 mM Mg2+, LDH assay, 1 × 10^5 cells/ml [4]: 23.9% | percent of HT1080 cells (endogenous human α2β1) adhering to the collagen coating, 5 mM Mg2+, LDH assay, 1 × 10^5 cells/ml [4]: 40.3% | percent of C2C12 cells transfected with human integrin α2 adhering to the collagen coating, 5 mM Mg2+, LDH assay, 1 × 10^5 cells/ml [1]: 16.1% | percent of HT1080 cells (endogenous human α2β1) adhering to the collagen coating, 5 mM Mg2+, LDH assay, 1 × 10^5 cells/ml [1]: 24.7% | percent of C2C12 cells transfected with human integrin α2 adhering to the collagen coating, 5 mM Mg2+, LDH assay, 1 × 10^5 cells/ml [5]: 18.5% | percent of HT1080 cells (endogenous human α2β1) adhering to the collagen coating, 5 mM Mg2+, LDH assay, 1 × 10^5 cells/ml [5]: 28.1%
Substance: recombinant human integrin α2 I domain (GST fusion) (domain or fragment)

percent of Rugli cells (endogenous rat α1β1) adhering to the collagen coating, 5 mM Mg2+, LDH assay, 1 × 10^5 cells/ml [2]: 22.8% | percent of Rugli cells (endogenous rat α1β1) adhering to the collagen coating, 5 mM Mg2+, LDH assay, 1 × 10^5 cells/ml [3]: 27% | percent of Rugli cells (endogenous rat α1β1) adhering to the collagen coating, 5 mM Mg2+, LDH assay, 1 × 10^5 cells/ml [4]: 18.9% | percent of Rugli cells (endogenous rat α1β1) adhering to the collagen coating, 5 mM Mg2+, LDH assay, 1 × 10^5 cells/ml [1]: 64.1% | percent of Rugli cells (endogenous rat α1β1) adhering to the collagen coating, 5 mM Mg2+, LDH assay, 1 × 10^5 cells/ml [5]: 55.6%
Substance: recombinant rat integrin α1 I domain (GST fusion) (domain or fragment)
